Laboratory results: PMC11480844 (2024)

B1: H2-Kb / Ed8 (parent complex)
chain 1: AQSVTQPDARVTVSEGASLQLRCKYSYFGTPYLFWYVQYPRQGLQLLLKYYPGDPVVQGVNGFEAEFSKSNSSFHLRKASVHWSDWAVYFCAVSPGSGGKLTLGAGTRLQVNL
chain 2: DSGVVQSPRHIIKEKGGRSVLTCIPISGHSNVVWYQQTLGKELKFLIQHYEKVERDKGFLPSRFSVQQFDDYHSEMNMSALELEDSAMYFCASSPRASNYTFGSGTRLLVI
chain 3: not shown
chain 4: IQKTPQIQVYSRHPPENGKPNILNCYVTQFHPPHIEIQMLKNGKKIPKVEMSDMSFSKDWSFYILAHTEFTPTETDTYACRVKHDSMAEPKTVYWDRDM
chain 5: SIINFEKL

Variants of: B1
Experiment: % of reporter cells activated (NFAT-GFP), raw; also: test concentration or dose not given here

| Variant | ratio to parent |
| --- | --- |
| chain 5 I3T | 1.34 |
| chain 5 I3Y | 0.813 |
| chain 5 I3S | 1.3 |
| chain 5 I3Q | 1.02 |
| chain 5 I3W | 1.03 |
| chain 5 I3N | 1.32 |
| chain 5 I3F | 0.98 |
| chain 5 I3K | 1.03 |
| chain 5 I3M | 1.27 |
| chain 5 I3D | 1.17 |
| chain 5 I3C | 1.27 |
| chain 5 N4Y | 0.00468 |
| chain 5 N4I | 0.469 |
| chain 5 N4K | 0.721 |
| chain 5 N4F | 0.015 |
| chain 5 N4V | 0.0175 |
| chain 5 N4M | 0.00281 |
| chain 5 N4C | 0.0721 |
| chain 5 N4G | 0.0339 |
| chain 5 S1K | 1.02 |
| chain 5 S1A | 1.28 |
| chain 5 S1R | 0.799 |
| chain 5 S1I | 0.983 |
| chain 5 S1E | 1.28 |
| chain 5 S1N | 0.821 |

| Variant | ratio to parent |
| --- | --- |
| chain 5 S1C | 1.03 |
| chain 5 S1Y | 1.16 |
| chain 5 S1H | 1.3 |
| chain 5 S1D | 1.12 |
| chain 5 E6G | 1.04 |
| chain 5 E6Q | 0.777 |
| chain 5 E6I | 0.00371 |
| chain 5 E6N | 0.733 |
| chain 5 E6L | 0.0522 |
| chain 5 E6P | 0.27 |
| chain 5 K7C | 0.326 |
| chain 5 K7T | 0.648 |
| chain 5 K7A | 0.643 |
| chain 5 K7Q | 0.662 |
| chain 5 K7D | 0.0673 |
| chain 5 K7R | 1.16 |
| chain 5 K7N | 0.809 |
| chain 5 K7W | 0.826 |
| chain 5 K7Y | 0.958 |
| chain 5 L8S | 0.945 |
| chain 5 L8Y | 1.16 |
| chain 5 L8C | 1.04 |
| chain 5 L8N | 1.06 |
| chain 5 L8K | 1.15 |
| chain 5 L8A | 1.05 |

| Variant | ratio to parent |
| --- | --- |
| chain 5 L8T | 1.1 |
| chain 5 L8H | 1.22 |
| chain 5 L8Q | 1.13 |
| chain 5 L8V | 0.877 |
| chain 5 L8W | 0.95 |
| chain 5 L8P | 1.21 |
| chain 5 L8G | 1.2 |
| chain 5 L8M | 1.13 |
| chain 5 L8E | 0.853 |
| chain 5 I2P | 1.4 |
| chain 5 I2S | 1.37 |
| chain 5 I2F | 1.25 |
| chain 5 I2T | 1.43 |
| chain 5 I2H | 1.13 |
| chain 5 I2A | 1.41 |
| chain 5 I2M | 1.2 |
| chain 5 I2V | 1.41 |
| chain 5 F5Q | 1.04 |
| chain 5 F5N | 1.1 |
| chain 5 F5I | 0.895 |
| chain 5 F5E | 0.932 |
| chain 5 F5S | 1.21 |
| chain 5 F5K | 1.02 |
| chain 5 F5M | 1.25 |
| chain 5 F5Y | 1.34 |
